Assays:
[1] = molecular target: recombinant human PlGF-1 (comprising amino acids 1-131) expressed in E. coli (R&D Systems) (human) (UniProt P49763); assay: … sandwich, capture MAb04, detection pAb264; antigen 750 pg/mL
[2] = molecular target: human PlGF-1 comprising amino acids 1-137 produced in human embryonic kidney cells (human) (UniProt P49763); assay: as above
[3] = molecular target: CHO human PlGF-1 fragment (comprising amino acids 17-131; ATCC PTA-8540) (human) (UniProt P49763); assay: as above
[4] = molecular target: CHO human PlGF-1 comprising amino acids 1-137 (human PlGF-1-His (1-131), CHO 6305) (human) (UniProt P49763); assay: as above
[5] = molecular target: human PlGF-1 fragment (comprising amino acids 17-131) produced in human embryonic kidney cells (human) (UniProt P49763); assay: as above
[6] = molecular target: recombinant human PlGF-1 (comprising amino acids 1-131) expressed in E. coli (R&D Systems) (human) (UniProt P49763); assay: … sandwich, capture MAb04, detection pAb264; antigen 60 pg/mL
[7] = molecular target: human PlGF-1 comprising amino acids 1-137 produced in human embryonic kidney cells (human) (UniProt P49763); assay: as above
[8] = molecular target: CHO human PlGF-1 fragment (comprising amino acids 17-131; ATCC PTA-8540) (human) (UniProt P49763); assay: as above
[9] = molecular target: CHO human PlGF-1 comprising amino acids 1-137 (human PlGF-1-His (1-131), CHO 6305) (human) (UniProt P49763); assay: as above
[10] = molecular target: human PlGF-1 fragment (comprising amino acids 17-131) produced in human embryonic kidney cells (human) (UniProt P49763); assay: as above
[11] = molecular target: recombinant human PlGF-1 (comprising amino acids 1-131) expressed in E. coli (R&D Systems) (human) (UniProt P49763); assay: … sandwich, capture MAb04, detection pAb264; antigen 1500 pg/mL
[12] = molecular target: human PlGF-1 comprising amino acids 1-137 produced in human embryonic kidney cells (human) (UniProt P49763); assay: as above
[13] = molecular target: CHO human PlGF-1 fragment (comprising amino acids 17-131; ATCC PTA-8540) (human) (UniProt P49763); assay: as above
[14] = molecular target: CHO human PlGF-1 comprising amino acids 1-137 (human PlGF-1-His (1-131), CHO 6305) (human) (UniProt P49763); assay: as above
[15] = molecular target: human PlGF-1 fragment (comprising amino acids 17-131) produced in human embryonic kidney cells (human) (UniProt P49763); assay: as above
[16] = molecular target: recombinant human PlGF-1 (comprising amino acids 1-131) expressed in E. coli (R&D Systems) (human) (UniProt P49763); assay: … sandwich, capture MAb04, detection pAb264; antigen 250 pg/mL
[17] = molecular target: human PlGF-1 comprising amino acids 1-137 produced in human embryonic kidney cells (human) (UniProt P49763); assay: as above
[18] = molecular target: CHO human PlGF-1 fragment (comprising amino acids 17-131; ATCC PTA-8540) (human) (UniProt P49763); assay: as above
[19] = molecular target: CHO human PlGF-1 comprising amino acids 1-137 (human PlGF-1-His (1-131), CHO 6305) (human) (UniProt P49763); assay: as above
[20] = molecular target: human PlGF-1 fragment (comprising amino acids 17-131) produced in human embryonic kidney cells (human) (UniProt P49763); assay: as above
[21] = molecular target: recombinant human PlGF-1 (comprising amino acids 1-131) expressed in E. coli (R&D Systems) (human) (UniProt P49763); assay: … sandwich, capture MAb04, detection pAb264; antigen 0 pg/mL (blank)
[22] = molecular target: human PlGF-1 comprising amino acids 1-137 produced in human embryonic kidney cells (human) (UniProt P49763); assay: as above
[23] = molecular target: CHO human PlGF-1 fragment (comprising amino acids 17-131; ATCC PTA-8540) (human) (UniProt P49763); assay: as above
[24] = molecular target: CHO human PlGF-1 comprising amino acids 1-137 (human PlGF-1-His (1-131), CHO 6305) (human) (UniProt P49763); assay: as above
[25] = molecular target: human PlGF-1 fragment (comprising amino acids 17-131) produced in human embryonic kidney cells (human) (UniProt P49763); assay: as above
[26] = molecular target: recombinant human PlGF-1 (comprising amino acids 1-131) expressed in E. coli (R&D Systems) (human) (UniProt P49763); assay: … sandwich, capture MAb04, detection pAb264; antigen 15 pg/mL
[27] = molecular target: human PlGF-1 comprising amino acids 1-137 produced in human embryonic kidney cells (human) (UniProt P49763); assay: as above
[28] = molecular target: CHO human PlGF-1 fragment (comprising amino acids 17-131; ATCC PTA-8540) (human) (UniProt P49763); assay: as above
[29] = molecular target: CHO human PlGF-1 comprising amino acids 1-137 (human PlGF-1-His (1-131), CHO 6305) (human) (UniProt P49763); assay: as above
[30] = molecular target: human PlGF-1 fragment (comprising amino acids 17-131) produced in human embryonic kidney cells (human) (UniProt P49763); assay: as above

Chain of CHO human PlGF-1 comprising amino acids 1-137 (human PlGF-1-His (1-131), CHO 6305) (human) (P49763 other isoform, or with tags, fused parts or gaps): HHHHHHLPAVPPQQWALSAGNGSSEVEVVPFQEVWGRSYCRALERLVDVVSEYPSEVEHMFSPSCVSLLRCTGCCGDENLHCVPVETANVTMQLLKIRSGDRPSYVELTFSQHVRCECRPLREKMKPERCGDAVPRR
Chain of human PlGF-1 comprising amino acids 1-137 produced in human embryonic kidney cells (human) (P49763 other isoform, or with tags, fused parts or gaps): as above
Chain of CHO human PlGF-1 fragment (comprising amino acids 17-131; ATCC PTA-8540) (human) (P49763 other isoform, or with tags, fused parts or gaps limits assumed): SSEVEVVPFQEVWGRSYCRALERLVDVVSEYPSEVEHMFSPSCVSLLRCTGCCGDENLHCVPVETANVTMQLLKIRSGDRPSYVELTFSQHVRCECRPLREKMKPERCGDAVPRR
Chain of human PlGF-1 fragment (comprising amino acids 17-131) produced in human embryonic kidney cells (human) (P49763 other isoform, or with tags, fused parts or gaps limits assumed): as above

Work on “rat monoclonal antibody 04 (Rat anti-Human PlGF clone number 358932, R&D Systems)” yielded an RLU [1] of 1.36e+06 RLU, an RLU [2] of 1.26e+06 RLU and an RLU [3] of 752000 RLU. The RLU [4] was 644000 RLU, the RLU [5] was 957000 RLU and the RLU [6] was 169000 RLU. It also gave an RLU [7] of 159000 RLU, an RLU [8] of 89500 RLU and an RLU [9] of 80100 RLU. The RLU [10] was 112000 RLU, the RLU [11] was 2.19e+06 RLU and the RLU [12] was 2.05e+06 RLU. The RLU [13] was 1.3e+06 RLU, the RLU [14] was 1.13e+06 RLU and the RLU [15] was 1.64e+06 RLU. For the same substance, the RLU [16] was 570000 RLU, the RLU [17] was 539000 RLU and the RLU [18] was 293000 RLU. For the same substance, the RLU [19] was 246000 RLU, the RLU [20] was 382000 RLU and the RLU [21] was 19000 RLU. It also gave an RLU [22] of 18800 RLU, an RLU [23] of 18900 RLU and an RLU [24] of 19100 RLU. It also gave an RLU [25] of 18700 RLU, an RLU [26] of 51900 RLU and an RLU [27] of 49700 RLU. For the same substance, the RLU [28] was 34200 RLU, the RLU [29] was 32100 RLU and the RLU [30] was 39500 RLU.
